What was measured:
SK-MEL-2 tumors = assay: Xenograft tumor model with SK-MEL-2 cells carrying inducible shRNA; type: in vivo, mice
Excerpt: (FIG. 14A) A schematic illustration of animal study design to test the in vivo antitumor efficacy of NGLY1 suppression in melanoma. (FIG. 14B) The volume changes of xenograted SK-MEL-2 tumors with the induction of NT-shRNA (n=10) and NGLY1-shRNA645 (n=8) for 35 days. Tumors were harvested at the end of the study for Western blotting analysis. Bars: median tumor volumes at the indicated time points. […] (FIG. 14C) The expression of NGLY1, GADD153, IRF3, and GFP (ZsGreen) proteins in selected tumors was analyzed by Western blotting. (FIG. 14D) The enhanced expression of IL-29 in the tumor tissues with NGLY1 knockdown was detected by immunofluorescence staining.
Six-week-old female NOD.CB17-Prkdc^scid/J mice (The Jackson Laboratory, Bar Harbor, ME) were group-housed under conditions of constant photoperiod (12 hours light: 12 hours dark) with ad libitum access to sterilized food and water. Since the animal work in this study was completed using an animal study service provided by the translational core laboratory at the University of Maryland, Baltimore, all experimental procedures and protocols utilizing mice were approved by the Institutional Animal Care and Use Committee at the University of Maryland. […] Tumors were measured weekly using calipers and their volumes calculated using a standard formula: width^2×length×0.52. Body weights were measured weekly. […]

[1] = test system: U-251MG glioblastoma cells; assay: Cell morphology of U-251MG cells with NGLY1 knockdown; type: cell-based
NGLY1 = NGLY1 expression in stable clones of melanoma cells (immunoblotting); type: cell-based, human; conditions: stable clones of MALME3M, UACC257 and SK-MEL-2 cells, 48-hour treatment of dox
Excerpt: These NGLY1-targeting shRNA sequences and a scrambled (non-targeting) shRNA sequence were cloned into doxycycline (dox)-inducible, polycistronic green fluorescence protein (GFP)-shRNA expression constructs (a pZIP inducible lentiviral vector, TransOMIC). Stable clones have been generated with the shRNA expression constructs in multiple human melanoma cell lines, including MALME3M, UACC257, SK-MEL-2, and COLO829 melanoma cells. […] Similar knockdown effects were found in the stable clones of other melanoma cells with this particular NGLY1 shRNA sequence. […] Similar to human normal fibroblasts, normal melanocytes (FIG. 5D) and keratinocytes appeared to well tolerate NGLY1 knockdown and show no sign of increased cell death. In addition, SK-MEL-2, MALME3M cells that express inducible NGLY1 shRNA presented significant apoptosis, compared to their scrambled RNA-expressing counterparts. The expression of exogenous human NGLY1 in melanoma cells attenuated NGLY1-targeting shRNA-induced apoptosis (FIG. 5E).
(§1) The knockdown of NGLY1 expression in melanoma cells was achieved by the transduction of pZIP-TRE3GS lentiviral expression vectors that carry two independent shRNA sequences (Below; TransOMIC Technologies, Huntsville, AL). […] The expression of the shRNA sequences and an open reading frame of the ZsGreen reporter is driven by the TRE3GS doxycycline-inducible promoter. […]

HepG2 liver cancer cells = assay: Cell morphology of HepG2 cells with NGLY1 knockdown; type: cell-based
UACC257 cells = assay: Cell morphology of UACC257 stable clones with dox-inducible shRNA; type: cell-based, human; conditions: 2 μM dox for 72 hours
Procedure: (FIG. 5A) The doxycycline (dox)-inducible pZIP-TRE3GS expression vector of non-targeting shRNA and NGLY1-targeting shRNA sequences. (FIG. 5B) The stable clones of UACC257 cells with dox-inducible shRNA. […] Cells with induced non-targeting (scramble)-shRNA maintain a morphology similar to the cells before dox induction. Cells were imaged after the treatment of 2 μM dox for 72 hours. BF: bright field. ZsGreen: green fluorescence protein. […] (FIG. 5E) The expression of human NGLY1-FLAG in SK-MEL-2 (SK) cells attenuates NGLY1-targeting shRNA-induced apoptosis. EV: empty vector, NGLY1-F: NGLY1-FLAG expression vector. […] All data were presented as mean±standard deviation (n=3, *P<0.05, […]). […] The cell viability curves of combinatorial treatment were plotted according to the doses of dox used in the treatment. Combination indexes were calculated using Calcusyn software. A combination index value <1 was considered synergistic. A combination index value <0.2 was considered highly synergistic. […]
as §1

B1: NGLY1-shRNA645: NGLY1-targeting shRNA sequence (SEQ ID NO: 5), dox-inducible lentiviral vector; used in the xenograft study (nucleic acid)
DNA: CCGAGUUUCAAAUAACAAUCAAUAGUGAAGCCACAGAUGUAUUGAUUGUUAUUUGAAACUCGAU
tumors that showed regression at the end of the study (SK-MEL-2 tumors; after size increase during the initial 3-4 weeks of dox treatment): three out of eight | growth of melanoma tumors (SK-MEL-2 tumors; dox-induced knockdown, 5 weeks): impeded | cell morphology [1]: morphology of apoptosis | expression of NGLY1 (NGLY1): largely suppressed | cell morphology (HepG2 liver cancer cells): morphology of apoptosis | cell morphology (UACC257 cells): morphological features of apoptosis
